Earlier results as cited in publication PMC5964610.

Target: FER (Arabidopsis thaliana) (UniProt Q9SCZ4)
Sequence of UniProt Q9SCZ4 (Q9SCZ4 28-447): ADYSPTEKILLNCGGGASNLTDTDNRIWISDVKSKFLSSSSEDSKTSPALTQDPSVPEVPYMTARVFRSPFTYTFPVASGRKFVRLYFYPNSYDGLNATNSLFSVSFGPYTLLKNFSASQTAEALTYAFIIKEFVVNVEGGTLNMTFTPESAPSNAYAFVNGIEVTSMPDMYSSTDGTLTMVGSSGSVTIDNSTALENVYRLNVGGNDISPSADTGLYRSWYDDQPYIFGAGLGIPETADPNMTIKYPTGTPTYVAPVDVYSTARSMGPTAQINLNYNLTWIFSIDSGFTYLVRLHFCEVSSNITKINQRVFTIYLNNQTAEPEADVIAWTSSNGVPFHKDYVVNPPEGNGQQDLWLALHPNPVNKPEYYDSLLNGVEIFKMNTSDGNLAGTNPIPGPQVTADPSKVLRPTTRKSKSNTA

Substance: RALF23 (from UniProt Q9LUS7)
- Kd: 310 nM
